Legend:
[1] = target: T1, human NMDAR (NR1/NR2B) on NMDAR expressing HEK cells (human, UniProt Q05586 19-938; Q13224 27-1484); experiment: flow cytometry on NMDAR-expressing HEK cells, PE-labelled anti-human IgG, GeoMFI
T1 construct: whole, on cells; Commercial HEK cell line (Charles River Laboratories, CTN6121); The antibodies are directed against the NR1 subunit; also called cell surface NMDAR; NMDAR expressed in HEK cells
Protocol: The binding activity of the produced humanized one-armed anti-human NR1 monoclonal antibodies was evaluated in a flow cytometry trial using the NMDAR expressing HEK cell.
The NMDAR expressing HEK cells were induced overnight and collected. […] After staining, the cells were sedimented at 1,200 rpm for 5 minutes and the supernatant was removed. After adding 2% Dialyzed FBS to the cells, the cells were centrifuged and sedimented. After the supernatant was removed, the PE labeled anti-human IgG antibody (Jackson ImmunoResearch Laboratories, 109-116-098) was diluted 100 times with 2% Dialyzed FBS and added to cells for 30 minutes at 4° C. After staining, the cells were centrifuged and sedimented as described above. After removing the supernatant, the cells were suspended in 2% Dialyzed FBS and the steps after secondary staining were repeated. The flow cytometry (FACS Verse) was measured as described in Example 3. each antibody binds with the cell surface NMDAR from GeoMFI showing the PE Fluorescence intensity value was analyzed using FlowJo (Becton Dickinson, Ver. 10.0.8).

[2] = target: T2, human NR1-His protein (extracellular domain of human NR1 with linker, HisTag and AviTag) (human, UniProt Q05586 19-392); experiment: competition ELISA on plate-coated human NR1-His protein; inhibition of the binding of biotin-labelled P003-102, streptavidin-HRP chemiluminescence
T2 construct: Expressed in Expi293F cells and purified from the supernatant; also called human NRA-His protein; human NR-His protein
Protocol: Specifically, 15 μL of the human NR1-His protein solution (1 μg/mL in Tris Buffered Saline (herein referred to as “TBS”)) was added to the 384 well plate (Thermo Fisher Scientific, 460372) and incubated overnight at 4° C. Then, the human NRA-His protein solution was removed and washed with 0.5% Tween-20 comprising TBS, NIPPON GENE, 310-07375 (referred to as “TBS-T”). After the wash, 50 uL of Blocking One (Nacalai Tesque, Inc., 03953-95) was added and incubated at room temperature for 1 hour or more.
After the wash, 15 μL is added to the HRP-labelled streptavidin (Funakoshi Co., Ltd., 21130) diluted 8,000 times using diluent, and incubated at room temperature for 30 minutes.

[3] = target: T2, human NR1-His protein (extracellular …); experiment: SPR (Biacore T200), antibody captured by anti-human IgG on a CM5 chip, human NR1-His protein as analyte, 1:1 binding model

Row | Binder | EC50 (read off the curve) [1] | IC50 (read off the curve) [2] | Kd [3]
1 | ABN-5, one-armed anti-human NR1 antibody derived from P003-102 (antibody, human IgG1, lambda, L234A L235A, Monovalent one-armed antibody made of one heavy chain (LALA; T366S, L368A, Y407V), one light chain and one Fc polypeptide) heavy: not shown light: NFMLTQPHSVSESPGKTVTISCTRSSGSIASNYVQWYQQRPGSAPTTVIYEDNQRPSGVPDRFSGSIDSSSNSASLTISGLKTEDEADYYCQSYDSSTVVFGGGTKLTVLGQPKANPTVTLFPPSSEELQANKATLVCLISDFYPGAVTVAWKADGSPVKAGVETTKPSKQSNNKYAASSYLSLTPEQWKSHRSYSCQVTHEGSTVEKTVAPTECS not shown | ~0.8 µg/mL | – | –
2 | ABN-2, humanized one-armed anti-human NR1 antibody (antibody, human IgG1, kappa, L234A L235A, also called ABN_178-m3) heavy: not shown light: DLQMTQSPSSLSASVGDRVTITCKASQDVNTAVAWYQQKPGKAPKLLIYWASTRHTGVPSRFSGSGSGTDYTLTISSLQPEDFATYYCQQHYSTPFTFGQGTKVEIKRTVAAPSVFIFPPSDEQLKSGTASVVCLLNNFYPREAKVQWKVDNALQSGNSQESVTEQDSKDSTYSLSSTLTLSKADYEKHKVYACEVTHQGLSSPVTKSFNRGEC not shown | ~0.05 µg/mL | ~0.3 µg/mL | –
3 | ABN-4, humanized one-armed anti-human NR1 antibody (antibody, human IgG1, kappa, L234A L235A) heavy: not shown light: DIQMTQSPSSLSASVGDRVTITCRPSENIYSNLAWYQQKPGKAPKLLVYAATNLADGVPSRFSGSGSGTDYTLTISSLQPEDIATYYCQHFWDSPPTFGQGTKLEIKRTVAAPSVFIFPPSDEQLKSGTASVVCLLNNFYPREAKVQWKVDNALQSGNSQESVTEQDSKDSTYSLSSTLTLSKADYEKHKVYACEVTHQGLSSPVTKSFNRGEC not shown | – | ~2 µg/mL | 878 pM

From patent publication US20230220070A1 (ARIALYS THERAPEUTICS, published 2023)
